From US20230183318A1

Biological target: PD-L1
Assay: -; literature value (Cheng et al., 2013)

Kd: 8.2 µM
Substance: PD-1 WT
